Source: PMC3907796

Target: BD-G72(95-153) (UniProt P59103)
Experiment: two-hybrid; β-galactosidase activity of AH109 transformants grown in SD/-2 broth at 30 °C, normalised to yeast with the AD and BD tags alone

Chain of BD-G72(95-153) (P59103 95-153): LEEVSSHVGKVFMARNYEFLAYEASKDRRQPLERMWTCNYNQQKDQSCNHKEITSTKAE

- β-galactosidase activity as percent of AD-DAO/BD-G72: 38%
- β-galactosidase activity relative to the BD/AD tag baseline: 1.81 fold
Substance: AD-DAO (D-amino acid oxidase N-terminally tagged with the activation domain) (from UniProt P14920 1-347) (enzyme)
